# Results published in patent publication US6964763B1, “Methods and compositions for inhibiting HIV infectivity and blocking chemokine activity” (priority 1997, dated 2005).
# B1: LFP156-243: control GST fusion protein representing downstream LIMPII sequences (protein)
# chain: IEAMLKAYQQKLFVTHTVDELLWGYKDEILSLIHVFRPDISPYFGLFYEKNGTNDGDYVFLTGEDSYLNFTKIVEWNGKTSLDWWITD
# modifications: left off: a dimerising Fc or GST
# B2: LFP75-155: GST fusion protein containing the LIMPII TSP binding domain (aa 75-155) (protein)
# chain: ILRGETPRVEEVGPYTYRELRNKANIQFGDNGTTISAVSNKAYVFERDQSVGDPKIDLIRTLNIPVLTVIEWSQVHFLREI
# modifications: left off: a dimerising Fc or GST
# B3: LIMPII peptide: LIMPII TSP-binding peptide, 10 kDa product purified after removal of GST moiety by proteolytic cleavage (protein)
# chain: B2 chain
# B4: CFP67-157: GST fusion protein containing the TSP1 binding domain of CD36 (aa 67-157) (protein)
# chain: IFDVQNPQEVMMNSSNIQVKQRGPYTYRVRFLAKENVTQDAEDNTVSFLQPNGAIFEPSLSVGTEADNFTVLNLAVAAASHIYQNQFVQMI
# modifications: left off: a dimerising Fc or GST
# What was measured:
# [1] = target: recombinant HIV-1 gp160 (gp120 non-covalently linked to gp41) (Human immunodeficiency virus type 1 group M subtype B, UniProt P03375); settings: 10-fold molar excess (0.5 μM) unlabeled competitor, 50 nM 125I-TSP1
# Procedure: Increasing concentrations of soluble ^125I-labeled TSP1 (1 nM-μM) were added to immobilized recombinant HIV-1 gp160 for 3 hours at 22° C., and bound TSP1 measured after extensive washing. Non-linear curve fit was generated with Excell™ version 5.0. Apparent affinity was estimated from Scatchard analysis. (n=2; error calculated as standard deviation, SD).
# A fixed concentration of ^125I-labeled TSP 1(50 nM) was added to immobilized rgp 160 in the absence or presence of 10-fold molar excess (0.5 μM) unlabeled TSP1, fusion protein LFP75-155 containing the LIMPII TSP binding domain (aa 75-155), or downstream fusion protein LFP 156-243. Samples were incubated, and bound TSP 1 was measured as in FIG. 2A. Plots represent single data sets of triplicate samples. (n=3, error as SD).
# Briefly, TSP1 (5-10 μg/ml) or fusion proteins and peptides (10-20 μg/ml) were immobilized on detachable 96-well microtiter plate strips (Immulon-4 Remov-a-well, Dynatech Laboratories, Inc.), by overnight incubation at 4° C. in carbonate buffer (100 mM Na2CO3/1 mM MgCl2/0.02% NaN3, pH 9.8). Washed wells were blocked with 0.5% bovine serum albumin (“BSA”), then incubated in triplicate with soluble radiolabeled ligand for 2.5 hours at 37° C. After extensive washing in 50 mM Tris pH 7.5, 150 mM NaCl, 0.5% Tween-20 (TBS-Tween), bound radioactivity was quantified by gamma counter. Radiolabeling was performed with Na[^125I] […] Specific activity of Na[^125I] was determined for each experiment, ranging from 0.06-1.0 μCi/μg. Specific binding was determined as quenchable in the presence of excess unlabeled ligand, above background binding to BSA-coated wells.
# [2] = system: CD4-gp120 complex formation; experiment: Competitive inhibition of 125I-CD4 binding to immobilized gp120; set-up: species or system HIV-1 (MN and LAI isolates); settings: 10-fold molar excess (0.5 μM) competitor, 50 nM 125I-CD4, MN and LAI gp120
# Procedure: FIG. 5 is a graph showing competitive inhibition of ^125I-CD4 binding to gp120. […] Samples were incubated, and bound TSP1 was measured as in FIG. 2. A single data set of triplicate samples (η=3, error as SD) is shown.
# Radiolabeling was performed with Na[^125I]
# These observations support a role for salivary TSP1 as a direct inhibitor of HIV infectivity.
# HIV-1 isolate IIIB = experiment: HIV-1 infectivity assay, virus pre-incubated with TSP1 or saliva, p24 ELISA day 7; type: cell-based
# Procedure: HIV-1 isolate IIIB was pre-incubated in the absence of TSP1, or with various concentrations of purified TSP1 for 1 hour at 37° C. Pre-incubated virus-TSP1 mixtures were added to target cells either directly (−), or first passed through 0.2 μm filters (+). Phorbol myrisate acetate (“PMA”) activated primary peripheral blood mononuclear cells (“PBMC”), SK23 (T-cell line) or U937 (promonocytic line) were inoculated with the multiplicities of infection (“moi”) indicated. After an additional 1 hour at 37° C., infected cells were washed, cultured for 7 days, and HIV-1 p24 antigen measured by ELISA. Inhibition is expressed for a single data set as percent of maximum p24 detected in the absence of TSP1.
# PMA-stimulated primary PBMC were infected with 0.02 moi HIV/IIIB that had been pre-incubated with TSP1 alone, or with LIMPII fusion protein LFP75-155 alone or in the presence of TSP1, and filtered prior to incubation as in FIG. 7. TSP-mediated inhibition is expressed as percent decrease in p24 relative to maximum p24 detected in the absence of TSP 1. Data shown represent the average of two independent experiments (error as SD). […]
Molecule,inhibition of 125I-TSP1 binding to gp160 [1],inhibition of 125I-CD4 binding to immobilized gp120 [2] [%],"abrogation of the inhibitory effect of TSP1 by competitor (HIV-1 isolate IIIB; 1 μM LIMPII peptide, 50-100 μg/ml TSP1, PBMC, 0.02 moi)","decrease of HIV-1 infectivity, peptide alone (HIV-1 isolate IIIB; LIMPII peptide alone, PBMC) [%]"
B1,did not,32±5,–,–
B2,47±14%,~89,–,–
B3,–,–,83-90%,9
B4,–,~89,–,–
